# T1: His-tagged human B7-H3 (human, UniProt Q5ZPR3-2 29-245, limits assumed)
# T1 construct: Bought His-tagged protein coated on the ELISA plate; also called hu B7-H3; CD276
# T1 sequence (looked up): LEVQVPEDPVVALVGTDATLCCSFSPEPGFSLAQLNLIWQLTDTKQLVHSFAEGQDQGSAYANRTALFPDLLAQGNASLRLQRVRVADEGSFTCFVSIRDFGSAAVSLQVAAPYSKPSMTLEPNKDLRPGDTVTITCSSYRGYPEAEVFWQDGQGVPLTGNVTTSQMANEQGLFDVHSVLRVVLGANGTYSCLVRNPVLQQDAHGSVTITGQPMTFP
# T2: His-tagged mouse B7-H3 (mouse, UniProt Q8VE98 29-244, limits assumed)
# T2 construct: Bought His-tagged protein coated on the ELISA plate; also called mu B7-H3; murine B7-H3
# T2 sequence (looked up): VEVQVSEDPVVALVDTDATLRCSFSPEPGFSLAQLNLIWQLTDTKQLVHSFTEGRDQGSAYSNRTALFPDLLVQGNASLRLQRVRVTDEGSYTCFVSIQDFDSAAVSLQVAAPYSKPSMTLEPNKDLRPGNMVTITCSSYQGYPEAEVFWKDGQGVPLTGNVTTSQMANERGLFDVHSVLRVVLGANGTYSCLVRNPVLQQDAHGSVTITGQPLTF
# T3: His-tagged cynomolgus monkey B7-H3 (cynomolgus monkey)
# T3 chain: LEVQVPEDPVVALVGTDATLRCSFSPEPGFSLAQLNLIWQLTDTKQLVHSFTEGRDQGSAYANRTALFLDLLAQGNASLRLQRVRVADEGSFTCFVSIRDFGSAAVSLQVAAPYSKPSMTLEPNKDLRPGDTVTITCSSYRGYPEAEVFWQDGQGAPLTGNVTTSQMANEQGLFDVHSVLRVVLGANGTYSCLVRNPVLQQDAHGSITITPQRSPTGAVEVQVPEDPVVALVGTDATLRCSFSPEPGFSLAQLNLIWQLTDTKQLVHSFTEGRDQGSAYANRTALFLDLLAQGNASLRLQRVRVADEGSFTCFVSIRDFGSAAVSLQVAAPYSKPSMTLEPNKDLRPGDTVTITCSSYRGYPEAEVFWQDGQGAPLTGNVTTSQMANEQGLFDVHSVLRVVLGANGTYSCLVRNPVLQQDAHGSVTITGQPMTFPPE
# T4: B7-H3 on B7-H3-expressing CHO cells (Genescript) (UniProt Q5ZPR3 29-534, limits assumed)
# T4 construct: whole, on cells; also called CHO-K1/B7-H3; MFI B7-H3
# T4 sequence (looked up): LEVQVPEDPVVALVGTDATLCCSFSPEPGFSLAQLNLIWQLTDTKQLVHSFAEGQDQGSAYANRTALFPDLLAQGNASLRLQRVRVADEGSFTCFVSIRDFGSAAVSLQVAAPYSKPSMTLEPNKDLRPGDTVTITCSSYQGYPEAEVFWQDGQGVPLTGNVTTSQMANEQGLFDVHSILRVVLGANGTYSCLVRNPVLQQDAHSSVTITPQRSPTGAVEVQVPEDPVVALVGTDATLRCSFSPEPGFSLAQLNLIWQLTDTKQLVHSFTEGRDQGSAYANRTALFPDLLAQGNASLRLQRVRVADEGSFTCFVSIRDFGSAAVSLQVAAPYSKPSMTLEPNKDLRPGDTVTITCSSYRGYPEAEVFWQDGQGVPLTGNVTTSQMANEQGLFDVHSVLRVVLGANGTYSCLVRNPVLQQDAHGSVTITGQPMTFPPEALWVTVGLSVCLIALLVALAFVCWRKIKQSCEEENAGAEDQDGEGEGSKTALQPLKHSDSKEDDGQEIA
# Legend:
# His-tagged human B7-H3 [1] = biological target: T1, His-tagged human B7-H3; assay: ELISA OD450 on hu B7-H3 over OD450 on mu B7-H3
# Protocol: (§1) The variable regions of heavy and light chains were cloned and assembled into a single chain Fv-Fc (ScFv-Fc) mammalian expression vector. Sanger sequencing was performed by GeneWiz and sequences were evaluated using DNASTAR Lasergene 15. Unique scFv-Fes were transiently expressed in Expi293 cells (Life Technologies, #A14527) grown in Expi293 Expression Medium (Life Technologies, #A1435101) after transfection using the ExpiFectamine transfection reagent and supplements (Life Technologies, #A14524). Cells were incubated for 3-5 days with shaking at 37° C. in a 5% CO2 humidified incubator.
# His-tagged human B7-H3 [2] = biological target: T1, His-tagged human B7-H3; assay: ELISA, coated His-tagged antigen, scFv-Fc 1 ug/ml
# Protocol: as §1
# His-tagged mouse B7-H3 = biological target: T2, His-tagged mouse B7-H3; assay: ELISA, coated His-tagged antigen, scFv-Fc 1 ug/ml
# Protocol: as §1
# [3] = biological target: T3, His-tagged cynomolgus monkey B7-H3; assay: ELISA, coated His-tagged antigen, scFv-Fc 1 ug/ml
# Protocol: as §1
# [4] = biological target: T4, B7-H3 on B7-H3-expressing CHO cells …; assay: flow cytometry, B7-H3-expressing CHO cells, 10 ug/ml
# Protocol: Binding of anti-B7-H3 antibodies to cell lines was assessed by flow cytometry. Briefly, approximately 1.5 e5 B7-H3-expressing CHO cells (Genescript) or parent CHO cells (ATCC) were resuspended in FACS buffer (PBS/1% BSA/0.01% NaN3) containing 10 μg/ml of anti-B7-H3 antibodies and incubated for 60 min on ice. […] Cells were then washed twice, resuspended in FACS buffer, and read on an Attune Flow Cytometer (Life Technologies). Data are expressed as Mean Fluorescent Intensities (MFI).
hu:mu ratio (His-tagged human B7-H3 [1]),ELISA OD450 @ 1 ug/ml (His-tagged human B7-H3 [2]) [OD450],ELISA OD450 @ 1 ug/ml (His-tagged mouse B7-H3) [OD450],ELISA OD450 @ 1 ug/ml [3] [OD450],MFI @ 10 ug/ml [4] [MFI],Binder
1.11,2.17,1.95,2.16,62200,"40633p1.2.A8 (scFv, V domains shown, Tested as scFv-Fc (Expi293 supernatant)) VH: EVQLLESGGGLLQPGGSLRLSCAASGFSFSSYGMHWVRQAPGKGLEWVAAINSDGSRIYYADSVKGRFTISRDNSKNTLYLQMNSLRAEDTAVYYCTKYYYHYAMDVWGQGTTVTVSS VL: QSVLTQPPSASGTPGQRVTISCSGSRSDIGATTVNWYQQLPGTAPKLLIYQSHLRPSGVPDRFSGSKSGTSASLAISGLQSEDEADYYCASWDASLNTWVFGGGTKLTVL"
1.04,1.83,1.75,1.72,65400,"40633p1.1.B12 (scFv, V domains shown, Tested as scFv-Fc (Expi293 supernatant)) VH: EVQLLESGGGLLQPGGSLRLSCAASGFSFSSYGMHWVRQAPGKGLEWVAAINSDGSRIYYADSVKGRFTISRDNSKNTLYLQMNSLRAEDTAVYYCTKYYYHYAMDVWGQGTTVTVSS VL: QSVLTQPPSASGTPGQRVTISCSGSRSDIGATTVNWYQQLPGTAPKLLTYQSHLRPSGVPDRFSGSKSGTSASLAISGLQSEDEADYYCASWDASLNTWVFGGGTKLTVL"
1.13,2.08,1.85,2.41,67600,"40633p1.2.G9 (scFv, V domains shown, Tested as scFv-Fc (Expi293 supernatant)) VH: EVQLLESGGGLLQPGGSLRLSCAASGFSFSSYGMHWVRQAPGKGLEWVAAINSDGSRIYYADSVEGRFTISRDNSKNTLYLQMNSLRAEDTAVYYCTKYYYHYAMDVWGQGTTVTVSS VL: QSVLTQPPSASGTPGQRVTISCSGSRSDIGATTVNWYQQLPGTAPKLLIYQSHLRPSGVPDRFSGSKSGTSASLAISGLQSEDEADYYCASWDASLNTWVFGGGTKLTVL"
1.49,1.88,1.26,1.62,67800,"40633p1.1.A6 (scFv, V domains shown, Tested as scFv-Fc (Expi293 supernatant)) VH: EVQLLESGGGLVQPGGSLRLSCAASGFSFSNYDMSWVRQAPGKGLEWVAGIRSGSRTYYADSVKGRFTISRDNSKNTLYLQMNSLRAEDTATYYCGRYFNMDVWGQGTTVTVSS VL: QSVLTQPPSASGTPGQRVTISCSGSTFNIGTNLVHWYQQLPGTAPKLLIYLTDRRPSGVPDRFSGSKSGTSASLAISGLQSEDEANYYCATWDDSLNSFLFGGGTKLTVL"
1.5,2.09,1.4,2.14,81300,"40633p1.2.E11 (scFv, V domains shown, Tested as scFv-Fc (Expi293 supernatant)) VH: EVQLLESGGGLVQPGGSLRLSCAASGFSFSNYDMSWVRQAPGKGLEWVAGIRSGSRTYYADSVKGRFTISRDNSKNTLYLQMNSLRAEDTATYYCGRYFNMDVWGQGTTVTVSS VL: QSVLTQPPSASGTPGQRVTISCSGSTFNIGTNLVHWYQQLPGTAPKLLIYLTDRRPPGVPDRFSGSKSGTSASLAISGLQSEDEANYYCATWDDSLNSFLFGGGTKLTVL"
1.06,2.14,2.02,2.14,63500,"40633p1.2.A10 (scFv, V domains shown, Tested as scFv-Fc (Expi293 supernatant)) VH: EVQLLESGGGLVQPGGSLRLSCAASGFTVSYYGMSWVRQAPGKGLEWVSVIKQDGSEEYYADSVKGRFTISRDNSKNTLYLQMNSLRAEDTAVYYCARHWNDYSNGMNVWGQGTTVTVSS VL: QSVLTQPPSASGTPGQRVTISCSGSTSNVGDRYVYWYQQLPGTAPKLLIYLDDQRPSGVPDRFSGSKSGTSASLAISGLQSEDEADYYCASWDASLNGWVFGGGTKLTVL"
2.01,1.78,0.886,2.01,53100,"40633p1.2.C3 (scFv, V domains shown, Tested as scFv-Fc (Expi293 supernatant)) VH: EVQLLESGGGLVQPGGSLRLSCAASGFTVSYYGMSWVRQAPGKGLEWVSAIKQDGSEKYYADSVKGRFTISRDNSKNTLYLQMNSLRAEDTAVYYCARHWNDYSNAMNVWEQGTTVTVSS VL: QSVLTQPPSASGTPGQRVTISCSGSNSNVGGNYVSWYQQLPGTAPKLLIYRNSQRPSGVPDRFSGSKSGTSASLAISGLQSEDEAVYYCASWDASLNGWVFGGGTKLTVL"
1.03,1.96,1.91,2.04,68800,"40633p1.2.F3 (scFv, V domains shown, Tested as scFv-Fc (Expi293 supernatant)) VH: EVQLLESGGGLVQPGGSLRLSCAASGFTVSYYGMSWVRQAPGKGLEWVSVIKQDGSEEYYADSVKGRFTISRDNSKNTLYLQMNSLRAEDTAVYYCARHWNDYSNGMNVWGQGTTVTVSS VL: not shown"
0.961,1.9,1.98,1.95,64700,"40633p1.2.E1 (scFv, V domains shown, Tested as scFv-Fc (Expi293 supernatant)) VH: EVQLLESGRGLVQPGGSLRLSCAASGFTVSYYGMSWVRQAPGKGLEWVSVIKQDGSEEYYADSVKGRFTISRDNSKNTLYLQMNSLRAEDTAVYYCARHWNDYSNGMNVWGQGTTVTVSS VL: QSVLTQPPSASGTPGQRVTISCSGSTSNVGDRYVYWYQQLPGTAPKLLIYLDDQRPSGVPDRFSGSKSGTSASLAISGLQSEDEADYYCASWDASLNGWVFGGGTKLTVL"
1.12,2.05,1.83,1.72,75900,"40633p1.1.G11 (scFv, V domains shown, Tested as scFv-Fc (Expi293 supernatant)) VH: EVQLLESGGGLVQPGGSLRLSCAASGFTVSYYGMSWVRQAPGKGLEWVSVIKQDGSEEYYADSVKGRFTISRDNSKNTLYLQMNSPRAEDTAVYYCARHWNDYSNGMNVWGQGTTVTVSS VL: QSVLTQPPSASGTPGQRVTISCSGSTSNVGDRYVYWYQQLPGTAPKLLIYLDDQRPSGVPDRFSGSKSGTSASLAISGLQSEDEADYYCASWDASLNGWVFGGGTKLTVL"
0.991,1.95,1.97,1.7,76400,"40633p1.1.A7 (scFv, V domains shown, Tested as scFv-Fc (Expi293 supernatant)) VH: EVQLLESGGGLVQPGGSLRLSCAASGFTVSYYGMSWVRQAPGKGLEWVSAIKQDGSEKYYADSVKGRFTISRDNSKNTLYLQMNSLRAEDTAVYYCARHWNDYSNAMNVWGQGTTVTVSS VL: QSVLTQPPSASGTPGQRVTISCSGSTSNIGRESVYWYQQLPGTAPKLLIYTIDQRPSGVPDRFSGSKSGTSASLAISGLQSEDEAVYYCASWDASLNGWVFGGGTKLTVL"

# — patent US20260008852A1 (CRYSTAL BIOSCIENCE, published 2026)
